The record followed here is PMC3172333.

pKd: −log10 of the molar value. Like-named read-outs stand apart in the source and are kept apart here.

The target in assay [1] is cross-linked Aα221-610 oligomers (factor XIIIa cross-linked) (human). Description: SPR.
In assay [2] the target is recombinant Aα221-610 fragment corresponding to the human fibrinogen αC region (non-cross-linked) (human). Put plainly: SEC.
Assay [3] has the same target. Description: SEC. This is another data set of the same source. For orientation: SEC sorts molecules by how far they enter the pores of the column.
The target is the same in assay [4]. Put plainly: SEC. The source holds these as a separate data set.
Assay [5] shares this target. Description: SEC. The source holds these as a separate data set.
The target is the same in assay [6]. Description: SEC. This is another data set of the same source.

By pKd is commonly meant the negative decadic logarithm of the Kd, by convention in mol/L. A high value points to a small Kd. Turning to human Glu-plasminogen (natural protein), the pKd in assay [1] is 6.34.

Consider “recombinant Aα221-610 fragment corresponding to the human fibrinogen αC region (non-cross-linked) (domain or fragment)”, for which the percent monomer in assay [2] amounted to 60%; in assay [5] it was 10%. For the same substance, the percent oligomers in assay [2] came out at 5%; in assay [3], 60%; in assay [4], 15%; in assay [6], 22%. Also, the percent oligomers (after overnight incubation) in assay [2] amounted to 11%. Besides, the percent oligomers (immediately after dilution) in assay [2] worked out at 18%.

“recombinant single-chain tissue type plasminogen activator (enzyme)” gave a negative-log Kd (pKd) in assay [1] of 6.36.
